Experimental data: patent US9023351

Target: human mesothelin (human, UniProt Q13421)
Experiment: FACS, OVCAR-3 cells

human mesothelin, sequence (Q13421 other isoform, or with tags, fused parts or gaps): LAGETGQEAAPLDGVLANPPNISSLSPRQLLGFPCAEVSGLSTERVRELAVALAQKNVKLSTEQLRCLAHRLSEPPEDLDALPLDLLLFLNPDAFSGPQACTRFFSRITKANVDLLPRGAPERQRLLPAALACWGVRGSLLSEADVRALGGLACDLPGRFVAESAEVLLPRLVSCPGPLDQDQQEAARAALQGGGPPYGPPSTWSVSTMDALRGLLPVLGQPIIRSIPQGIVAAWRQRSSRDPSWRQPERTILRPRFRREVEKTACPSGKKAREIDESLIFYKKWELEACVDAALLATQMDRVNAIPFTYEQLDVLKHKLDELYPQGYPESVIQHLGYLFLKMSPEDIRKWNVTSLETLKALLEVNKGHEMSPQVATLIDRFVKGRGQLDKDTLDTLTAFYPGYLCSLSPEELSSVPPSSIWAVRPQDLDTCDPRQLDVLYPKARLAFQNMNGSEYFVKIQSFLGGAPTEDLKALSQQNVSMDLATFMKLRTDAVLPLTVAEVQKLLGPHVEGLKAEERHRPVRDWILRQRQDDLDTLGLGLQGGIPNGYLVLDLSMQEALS

EC50 [nM]	Binder
4.19	MOR06638 IgG (antibody, V domains shown) VH: QVQLVQSGAEVKKPGASVKVSCKASGYTFTGNYINWVRQAPGQGLEWMGIINPHGGDTKYAQKFQGRVTMTRDTSISTAYMELSSLRSEDTAVYYCARWHHGTWIFDYWGQGTLVTVSS VL: DIVLTQPPSVSGAPGQRVTISCSGSSSNIGSNYVSWYQQLPGTAPKLLIYNDNQRPSGVPDRFSGSKSGTSASLAITGLQSEDEADYYCSSWDRADGSYVFGGGTKLTVL
1.86	MOR06643 IgG (antibody, V domains shown) VH: QVQLVESGGGLVQPGGSLRLSCAASGFTFSDYAMSWVRQAPGKGLEWVSAIMYDSSSTFYADSVKGRFTISRDNSKNTLYLQMNSLRAEDTAVYYCARINYIYKGVHFDYWGQGTLVTVSS VL: not shown
0.96	MOR06631 IgG (antibody, V domains shown) VH: QVQLVQSGAEVKKPGESLKISCKGSGYSFTNYWIGWVRQMPGKGLEWMGFIWPVDSWTQYSPSFQGQVTISADKSISTAYLQWSSLKASDTAMYYCARYGHGMYGGALDVWGQGTLVTVSS VL: DIVLTQSPATLSLSPGERATLSCRASQSVRSSRLAWYQQKPGQAPRLLIYGASKRATGVPARFSGSGSGTDFTLTISSLEPEDFATYYCQQYYDFPPTFGQGTKVEIK
1.06	MOR07265 IgG (antibody, V domains shown) VH: QVQLVQSGAEVKKPGESLKISCKGSGYSFTNYWIGWVRQMPGKGLEWMGFIWPVDSWTQYSPSFQGQVTISADKSISTAYLQWSSLKASDTAMYYCARYGHGMYGGALDVWGQGTLVTVSS VL: not shown
0.54	MOR06642 IgG (antibody, V domains shown) VH: QVQLVQSGAEVKKPGESLKISCKGSGYSFTNYWIGWVRQMPGKGLEWMGVIMPSDSYTRYSPSFQGQVTISADKSISTAYLQWSSLKASDTAMYYCARYGHGMYGGALDVWGQGTLVTVSS VL: not shown
1.35	MOR07111 IgG (antibody, V domains shown) VH: QVQLVQSGAEVKKPGESLKISCKGSGYSFTNYWIGWVRQMPGKGLEWMGVIMPSDSYTRYSPSFQGQVTISADKSISTAYLQWSSLKASDTAMYYCARYGHGMYGGALDVWGQGTLVTVSS VL: DIVLTQSPATLSLSPGERATLSCRASQSVRSSRLAWYQQKPGQAPRLLIYGASKRATGVPARFSGSGSGTDFTLTISSLEPEDFAVYYCQQFYSKPITFGQGTKVEIK
1.4	MOR06669 IgG (antibody, V domains shown) VH: QVQLVQSGAEVKKPGESLKISCKGSGYSFTNYWIGWVRQMPGKGLEWMGIIWPIDSFTQYSPSFQGQVTISADKSISTAYLQWSSLKASDTAMYYCARYGHGMYGGALDVWGQGTLVTVSS VL: DIVLTQSPATLSLSPGERATLSCRASQSVRSSRLAWYQQKPGQAPRLLIYGASKRATGVPARFSGSGSGTDFTLTISSLEPEDFATYYCQQYYDFPPTFGQGTKVEIK
